Kd data for one substance are collected here from article PMC2807033.

The target of this test is RepΔC33 (Rep lacking the C-terminal 33 residues) (E. coli) (UniProt P09980). Briefly: not stated; apparent KD (equilibrium dissociation constant), Figure S5; the method is not told in the text shown (SPR is the only quantitative binding method that the paper names).

Consider “E. coli replicative helicase DnaB, purified (from UniProt P0ACB0 1-471) (enzyme)”, for which the Kd stood at 1700 nM.
